Experimental data published in patent publication US20230054956A1 (VANDERBILT UNIVERSITY, published 2023).
Where a chain is given by its changes, count along the chain named.

B1: NORO-296A (antibody, V domains shown)
VH: QVQLVESGGGLVKPGGSLRLSCAASGFTFSEYYMSWVRQAPGKALEWVSYITSSFSSTSYADSVKGRFVISRDNAKNSLYLQMNSLRVEDTAVYYCARYGAEYGSRSFYFLDWGQGTLVTVSS
VL: QSVLTQPPSVSGAPEQRVTISCTGSSSNIGAGYDVHWYQVLPGIAPKLLIYDNNKRPSGVPDRFSGSKSGTSASLAITGLQAEDEADYYCQSYDSRLSSNVVFGGGTKLTVL
B2: NORO-278 (antibody, V domains shown)
VH: QVQLVESGGGVVQPGRSLRLSCAASGFTFSSYGMHWVRQAPGKGLEWVAVISYDGSNKYYADSVKGRFTISRDNSKNTLYLQMNSLRAEDTAVYYCAKVTIIAAADLLDYWGQGTLVTVSS
VL: B1 VL with E15G, V40Q, I44T, D52G, N54S, K55N, R96S, S99G, N100P
B3: NORO-303 (antibody, V domains shown)
VH: QVQLVESGGGVVQPGRSLRLSCAASGFIFSSYAMHWVRQAPGKGLEWVAVMSYDGNNKYYADSVKGRFTISRDNSKNTLFLQMNSLRPEDTAVYYCARDCRVGWVFTYGMDVWGQGTLVTVSS
VL: QSALTQPPSASGSPGQSVTISCTGTSSDVGGYNYVSWYQQHPGKAPKLMMYEISKRPSGVPIRFSGSKSGNTASLTVSGLQAEDEADYYCSSYAGTYNCVVFGGGTKLTVL
B4: NORO-250B (antibody, V domains shown)
VH: QVQLVESGGGLVKPGGSLTLSCAASGFTFSDYYMNWIRQAPGKRLEWVSYISGIMSSTNYADSVKGRFTISRDTAKKSVYLQMNSLRAEDTAVYYCARATSQGATSYYFDSWGQGTLVTVSS
VL: QSVLTQPPSVSGAPGQRVTISCTGSSSNIGADYDVHWYQQLPGAAPRLLIYADINRPSGVPDRFSGSKSGTSASLAITGLQAEDEADYYCQSYDRSVSGSAVFGGGTKVTVL
B5: NORO-256A (antibody, V domains shown)
VH: QVQLVESGGGVVQAGRSLRLSCAASGFTFRSYGMHWVRQAPGKGLEWVAIISYDGGSKYYADSVKGRFTISRDNSKNTLYLQMNSLRVEDTALYYCAKDFLRVYSYGWHSFDIWGLGTLVTVSS
VL: QSVLTQPPSVSAAPGQRVTISCSGSSSNIGTYYVSWYQHLPGTAPKLLIYDNDKRPSGIPDRFSASKSGTSATLDIAGLQTGDEADYYCGTWDLSLTAGWVFGGGTKLTVL
B6: NORO-273A (antibody, V domains shown)
VH: QVQLVQSGAEVKKPGASVKISCKASGYDFTSFPMHWVRLGPGQRLEWMGWISAANGNTKYSQKFQDRFTITRDTSASIVHMELSSLRSEDTAVYYCARGGYSSGLYRYSNYYYGMTVWGQGTLVTVSS
VL: DIVMTQTPLSLSVTPGQPASISCKSSESLLHNDRKTYLFWYLQKPGQPPQLLIFQVSNRFSGVPDRFSGSGSGTDFTLRISRVEAEDVGIYYCLQTTQLPLTFGGGTKVEIK
B7: NORO-317 (antibody, V domains shown)
VH: QVQLVESGGGLVKPGGSLRLSCVASGFTFSDYYISWVRQAPGKGLEWVSYISAINSYTNYADSVRGRFTVSRDNAKKSVFLQMNSLRVDDTAVYYCARDVGGSVRYSSNSNKKSYNYFDPWGQGTLVTVSS
VL: SYELTQPPSVSVSPGQTATITCSGDVLSKEFAYWYQQKPGQAPVLVIYKDNERPSGIPERFSGSTSGTTVTLTISGVLAEDEAHYYCQSVDTRGTYKVFGGGTKLTVL
B8: NORO-123 (antibody, V domains shown)
VH: QVQLVESGGGVVQPGRSLRLSCSTSGFTFSQYPMHWVRQAPGKGLEWVALISYDGMNKYYADSVRGRFTISRDNSENTQYLQMNSLRGDDTAVYYCARVTGDCTGNRCSYWAYYYYGLDVWGQGTLVTVSS
VL: QSALTQPPSASGSPGQSVTISCTGTSSDVGGYKYVSWYQQHPGKAPKLMIYEVTRRPSGVPDRFSGSKSGNTAFLTVSGLQAEDEADYYCGSYAGSTTSGYVFGTGTKVIVL
B9: NORO-313.1 (antibody, V domains shown)
VH: QVQLVESGGGLVKPGGSLRLSCAASGFTFSDFYMSWIRQAPGKGLEWVGYISSIAGATNYADSVKGRFTISRDSSKRSLYLQMNSLRVEDTAVYYCARMGRLELERRPHYYYPLDVWGQGTLVTVSS
VL: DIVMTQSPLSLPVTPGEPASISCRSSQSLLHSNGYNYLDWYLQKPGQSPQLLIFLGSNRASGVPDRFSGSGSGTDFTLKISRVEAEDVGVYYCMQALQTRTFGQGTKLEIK
B10: NORO-312A (antibody, V domains shown)
VH: QVQLVESGGALVKPGESLRLSCAASGFTFSDSYMSWIRQAPGKGLEWVAYISGIMSSTNYADSVKGRFTISRDNGKNSVYLQMNNLRAEDTAVYYCARDAQYCSGGRCYLVFDYWGQGTLVTVSS
VL: QSVLTQPPSVSGAPGQRVTISCTGSSSNIGAGYEVHWYQQLPGAAPKLIIYGNNNRPSGVPDRFSGSKSGTSASLAITGLQADDEADYYCQSYDNRLRVFGGGTKLTVL
B11: NORO-202A.1 (antibody, V domains shown)
VH: QVQLVQSGAEVKKPGASVKVSCKASEYTFTGYYLQWVRQAPGHGLEWMGWINPSGGTKYSQKFQGRVTMTRDTSITTVYMELSRLRSDDTAVYYCARDLLRNWGDHDAFDVWGQGTMVTVSS
VL: QSVLTQPPSASETPGQGVTISCSGSSSNIGSNFVCWYQQVPGTAPKLLIYKNNQRPSGVPDRFSGSKSGTSASLAISGLRSEDEADYYCSAWDDSLSGPVFGGGTKLTVL
B12: NORO-279A (antibody, V domains shown)
VH: QVQLVESGGGVVQPGRSLRLSCAASGFTFTKYGMHWVRQAPGKGLEWVAFIAYDGSVKYYGDSAKGRFAISRDNPKNTVYLQMNSLRAEDTAVYYCAKVEIHYYSNSLLGMDVWGQGTLVTVSS
VL: QSVLTQPPSASGTPGQRVTISCSGGNSNIGISYVYWYQHLPGTAPKLLISKNNLRPSGVPDRFSASKSGTSASLAISGLRSEDEAEYYCATLDINMTWVFGGGTKLTVL
B13: NORO-251A (antibody, V domains shown)
VH: QVQLVESGGGVVQPGRSLRLSCAASGFTFRSYGIHWVRQAPGKGLEWVALISYDGSSKYYADSVKGRFTISRDNSKNTLYLQMNSLRSEDTAVYYCAKVRLTSYSIGWFSFDYWGQGTLVTVSS
VL: QSVLTQPPSVSAAPGQKVTISCSGSSSNIANYYVSWYQQLPGRAPKLLIYDNNKRPSGIPDRISGSKSGTSATLGITGLQTGDEADYYCGTWDTSLSAWVFGGGTKLTVL
B14: NORO-315B (antibody, V domains shown)
VH: QVQLVESGGGLVKPGGSLRLSCVASGFTFSDYYMTWFRQTPGRGLEWLSYISAIGGYTEYADSVKSRFIISRDNGKKSLYLQMNSLRAEDSGVYYCAREDCHGTSCYSGDWGQGTLVTVSS
VL: QSVLTQPPSVSGAPGQRVTISCTGSSSNIGAGYDVHWYQQLPGTAPKLLIYHNTNRPSGVPDRFSGSKSGTSAYLTITGLQAEDEADYYCQSYDRSLSKSRVFSGGTKLTVL
B15: NORO-310A (antibody, V domains shown)
VH: EVQLVESGGGLVRPGESLRLSCVASGFSVSDNYMSWVRQAPGKGLQWVSVIYSGGTTFYTDSVKGRFTISRDKSKNTLFLQMNSLRAEDTAVYFCTRDPSQYYDSRGHYYQTFTPSFDSWGQGTLVTVSS
VL: DIQMTQSPSVMSASVGDRVTITCRASQDISDYLAWFQQKPGKVPKRLIYAASSLQNGVPSRFSGSGSGTEFTLTISSLQPEDFATYYCLQHDTYPLTFGGGTKVEIK
B16: NORO-263 (antibody, V domains shown)
VH: QVQLVESGGGLVKPGGSLRLSCAASGFTLSDYYMSWIRQAPGKGLEWVAYISSSHTSTYYRDSVKGRFTISRDSAKKSLYLQMNSLRVEDTAIYYCARDWVGGRSAYSDHWGQGTLVTVSS
VL: SYELTQPPSVSVSPGQTARITCSGDALPRRPAFWYQQKSGQAPVLVMYDDSKRPSGIPERFSGSSSGTVATLTISGAQVEDEADYHCYSTDSSGKERVFGGGTKLTVL

Molecular target: GII.4 Sydney 2012 virus-like particles (VLPs), based on strain AFV08795.1 (human norovirus GII.4 Sydney 2012, UniProt P54635 1-538, The particle is a multimeric assembly of VP1 with a little VP2 inside; one VP1 chain is given.)
Assay: indirect ELISA, VLP coated

Binder | EC50
B1 | 0.6 µg/mL
B2 | 4 µg/mL
B3 | 0.5 µg/mL
B4 | 0.2 µg/mL
B5 | 0.9 µg/mL
B6 | 0.2 µg/mL
B7 | 0.4 µg/mL
B8 | 5.4 µg/mL
B9 | 0.1 µg/mL
B10 | 0.4 µg/mL
B11 | 0.4 µg/mL
B12 | 0.2 µg/mL
B13 | 0.9 µg/mL
B14 | 0.7 µg/mL
B15 | 6.2 µg/mL
B16 | 0.6 µg/mL
